Assay results reported in patent publication US20120277144A1 (published 2012).

Biological target: Rac1 (human, UniProt P63000 1-189)
Test: co-immunoprecipitation with anti-FGD5 antibody from lysates of FGD5 overexpressing HUVECs, western blot
Experimental: GTP-RhoA, Rac1, and cdc42 activation levels were measured using the G-lisa detection system (Tebu-Bio, The Netherlands). For FGD5-protein complex co-immunoprecipitation, magnetic beads (Dynabeads, Invitrogen, The Netherlands) were coated and cross-linked with 2.5 μg anti-FGD5 antibody (Bioscience, The Netherlands) before immunoprecipitation overnight at 4° C. with protein cell lysates of transfected HUVECs (50 μg total protein of a volume of 100 μl incubation buffer). Beads were washed and the protein samples were eluted with eluation buffer (Invitrogen, The Netherlands) before analysis by western blot.

B1: FYVE, RhoGEF and PH domain-containing 5 (FGD5) (enzyme)
chain: MFRGPKPPIAPKPRLTAPNEWRASVYLNDSLNKCSNGRLPCVDRGLDEGPRSIPKCSESETDEDYIVVPRVPLREDEPKDEGSVGNKALVSPESSAEEEEEREEGGEACGLEGTGAGEDSVAPAAPGAGALSREGEEGTDLALEDEGEGCADEPGTLEQVSRSEEEEKLVQPHRECSLEDSGPWAGEGVFQSDLLLPHIHGEDQEPPDTPGEAEEDDEEGCASTDPAGADEGSGPDRPTEDMGQDAEDTSEEPPEKEELAGVQEAETATDCPEVLEEGCEEATGVTGGEQVDLSEPPDHEKKTNQEVAAATLEDHAQDESAEESCQIVPFENDCMEDFVTSLTGSPYEFFPTESTSFCSESCSPLSESAKGLESEQAPKLGLRAEENPMVGALCGQCGSLQGGAAEGPAAPDVVVVLEEEALDDALANPYVMGVGLPGQAAPGEGGQAASDALGGYGSKEELNCEAEGGLVPADRKNTSTRVRPHSGKVAGYVPETVPEETGPEAGSSAPGIGGAAEEVGKTLLSLEGKPLEASRALPAKPRAFTLYPRSFSVEGREIPVSVYQEPEGSGLDDHRIKRKEDNLSLSCVIGSSGSFSQRNHLPSSGTSTPSSMVDIPPPFDLACITKKPITKSSPSLLIESDSPDKYKKKKSSFKRFLALTFKKKTENKLHVDVNVSSSRSSSESSYHGPSRILEVDRRSLSNSPQLKSRTGKLRASESPSSLIFYRDGKRKGVPFSRTVSRVESFEDRSRPPFLPLPLTKPRSISFPSADTSDYENIPAMNSDYENIQIPPRRPARAGAFTKLFEDQSRALSTANENDGYVDMSSFNAFESKQQSADQDAESAYTEPYKVCPISSAAPKEDLTSDEEQRSSEEEDSASRDPSVTHKVEGQSRALVIAQELLSSEKAYVEMLQHLNLDFHGAVMRALDDMDHEGRDTLAREELRQGLSELPAIHDLHQGILEELEERLSNWESQQKVADVFLAREQGFDHHATHILQFDRYLGLLSENCLHSPRLAAAVREFEQSVQGGSQTAKHRLLRVVQRLFQYQVLLTDYLNNLCPDSAEYDNTQGALSLISKVTDRANDSMEQGENLQKLVHIEHSVRGQGDLLQPGREFLKEGTLMKVTGKNRRPRHLFLMNDVLLYTYPQKDGKYRLKNTLAVANMKVSRPVMEKVPYALKIETSESCLMLSASSCAERDEWYGCLSRALPEDYKAQALAAFHHSVEIRERLGVSLGERPPTLVPVTHVMMCMNCGCDFSLTLRRHHCHACGKIVCRNCSRNKYPLKYLKDRMAKVCDGCFGELKKRGRAVPGLMRERPVSMSFPLSSPRFSGSAFSSVFQSINPSTFKKQKKVPSALTEVAASGEGSAISGYLSRCKRGKRHWKKLWFVIKGKVLYTYMASEDKVALESMPLLGFTIAPEKEEGSSEVGPIFHLYHKKTLFYSFKAEDTNSAQRWIEAMEDASVL
notes: Guanine-nucleotide exchange factor; The co-IP used lysates of HUVECs transfected with adenovirus encoding human FGD5 cDNA; also called Ad-FGD5 transgene product
  binding result: no binding
